± gives the standard error. Variants at the floor of the assay were thinned out.
B1: glmS ribozyme (parent)
chain: AUAAAAGCGCCAGAACUACAGAAAUGUAGUUGACGAGGAGGAGGUUUAUCGAAUUUUCGGCGGAUGCCUCCAAA

Legend:
Settings in all cases: with glucosamine-6-phosphate
glucosamine-6-phosphate [1] = variants of: B1; test: self-cleavage kobs at 160 uM GlcN6P; higher = faster cleavage; RNA array
Procedure, shortened: (§1)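 Barcoded ribozyme variants, transcribed in situ by E. coli RNA polymerase on sequenced MiSeq chips, were followed via a hybridised Cy3 probe at 37 °C. Glucosamine-6-phosphate ranged from 40 μM to 10 mM in HEPES/KCl/Mg(OAc)2 buffer. kobs came from decay fits to per-tile medians, and kcat and KM from weighted Michaelis–Menten fits.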

glucosamine-6-phosphate [2] = variants of: B1; test: self-cleavage kobs at 640 uM GlcN6P; higher = faster cleavage; RNA array
Procedure, shortened: as §1

glucosamine-6-phosphate [3] = variants of: B1; test: self-cleavage kobs at 2500 uM GlcN6P; higher = faster cleavage; RNA array
Procedure, shortened: as §1

glucosamine-6-phosphate [4] = variants of: B1; test: self-cleavage kobs at 10000 uM GlcN6P; higher = faster cleavage; RNA array
Procedure, shortened: as §1

Variant | self-cleavage kobs at 160 uM GlcN6P (glucosamine-6-phosphate [1]) | self-cleavage kobs at 640 uM GlcN6P (glucosamine-6-phosphate [2]) | self-cleavage kobs at 2500 uM GlcN6P (glucosamine-6-phosphate [3]) | self-cleavage kobs at 10000 uM GlcN6P (glucosamine-6-phosphate [4])
AUAAAAGCGCCAGAACUACAGAAAUGUAGUUGACGAAGAGGAUGUUCAUCGCAUUUUCGGCGGUUGCCUCCAAA [G37A G43U U47C A52C A64U] | < 1e-05 s⁻¹ | < 1e-05 s⁻¹ | < 1e-05 s⁻¹ | 
AUAAAAGCGCCAGAACUACAGAAAUGUAGUUGACGACGAGGAGGUAUAUCGAAUUUUCGGCGGAUGCAUCCAAA [G37C U46A C68A] | < 1e-05 s⁻¹ |  |  | 
AUAAAAGCGCCAGAACUACAGAAAUGUAGUUGACGAGCAGGAGGUUUGUCGAAUUUUCGUCGGAUGCCUCCAAA [G38C A48G G60U] | < 1e-05 s⁻¹ | < 1e-05 s⁻¹ | < 1e-05 s⁻¹ | 
AUAAAAGCGCCAGAACUACAGAAAUGUAGUUGACGAAGAGGACGUUUAUCGAAUUUUCGGCGGAUGCCUCCAAA [G37A G43C] | < 1e-05 s⁻¹ |  | < 1e-05 s⁻¹ | 
AUAAAAGCGCCAGAACUACAGAAAUGUAGUUGACGAAGCGGAGGUUCAUCGAAUUUUCGGCGGAUGCCUCUAAA [G37A A39C U47C C71U] | < 1e-05 s⁻¹ |  | 3.22e-05 ± 1.4e-05 s⁻¹ | 
AUAAAAGCGCCAGAACUACAGAAAUGUAGUUGACGACGAGGAGGUUUAUCGAAUUUUCGUCGGAUGCCUUCAAA [G37C G60U C70U] | < 1e-05 s⁻¹ |  |  | 
AUAAAAGCGCCAGAACUACAGAAAUGUAGUUGACGAGCAGGAGGUUUAUCGAAUUUUCAGCGGAUGCCUCCAAA [G38C G59A] | < 1e-05 s⁻¹ | < 1e-05 s⁻¹ |  | 
AUAAAAGCGCCAGAACUACAGAAAUGUAGUUGACGAUGAGGAGGUUUCUCGAAUUUUCGGCGGAUGCUUCCAAA [G37U A48C C68U] | < 1e-05 s⁻¹ | < 1e-05 s⁻¹ |  | 
AUAAAAGCGCCAGAACUACAGAAAUGUAGUUGACGAGAAGUAGGUUUAUCGAAUUGUCGGCGGAUGCCUCCAAA [G38A G41U U56G] | < 1e-05 s⁻¹ | < 1e-05 s⁻¹ | < 1e-05 s⁻¹ | 
AUAAAAGCGCCAGAACUACAGAAAUGUAGUUGACGAUGAGGCGGUUUAUUGAAUUUUCGGCGGAUGCGUCCAAA [G37U A42C C50U C68G] | < 1e-05 s⁻¹ | < 1e-05 s⁻¹ | < 1e-05 s⁻¹ | 
AUAAAAGCGCCAGAACUACAGAAAUGUAGUUGACGAGUAGGAGGUUUAUCGAAUUUUCGGCGGAUGCAUCCAAA [G38U C68A] | 7.69e-05 ± 2.1e-05 s⁻¹ | 0.000459 ± 0.00019 s⁻¹ | 0.000238 ± 9.6e-05 s⁻¹ | 
AUAAAAGCGCCAGAACUACAGAAAUGUAGUUGACGAGACGGAGGUUUAUCGAAUUUACGGCGGAUGCCUCCAAA [G38A A39C U57A] | < 1e-05 s⁻¹ | < 1e-05 s⁻¹ |  | 
AUAAAAGCGCCAGAACUACAGAAAUGUAGUUGACGAAGAGGAGGUUUAACGAAUUUUCGGCGGAUGGCUCCAAA [G37A U49A C67G] | < 1e-05 s⁻¹ |  | < 1e-05 s⁻¹ | 
AUAAAAGCGCCAGAACUACAGAAAUGUAGUUGACGAGAAGGAGAUUUAUUGAAUUUUCGGCGGAUGCCUCCAAA [G38A G44A C50U] | < 1e-05 s⁻¹ | < 1e-05 s⁻¹ |  | 
AUAAAAGCGCCAGAACUACAGAAAUGUAGUUGACGAGUAGGAGGUUUAUCGAAUUUUUGGCGUAUGCCUCCAAA [G38U C58U G63U] | < 1e-05 s⁻¹ |  |  | 
AUAAAAGCGCCAGAACUACAGAAAUGUAGUUGACGAGCAGGAGUUUUAUCGAAUUUUCGGCGGAUGGCUCCAAA [G38C G44U C67G] | < 1e-05 s⁻¹ |  |  | < 1e-05 s⁻¹
AUAAAAGCGCCAGAACUACAGAAAUGUAGUUGACGAAGAGGAGGUUUGUCGGAUUUUCGGCAGAUGCCUCCAAA [G37A A48G A52G G62A] | < 1e-05 s⁻¹ |  |  | 

Variant | self-cleavage kobs at 160 uM GlcN6P (glucosamine-6-phosphate [1]) | self-cleavage kobs at 640 uM GlcN6P (glucosamine-6-phosphate [2]) | self-cleavage kobs at 2500 uM GlcN6P (glucosamine-6-phosphate [3]) | self-cleavage kobs at 10000 uM GlcN6P (glucosamine-6-phosphate [4])
AUAAAAGCGCCAGAACUACAGAAAUGUAGUUGACGAGAAGGAGGUUUAUCGAAUUUUCAGCGGAUGCCUCCAAA [G38A G59A] | < 1e-05 s⁻¹ |  |  | < 1e-05 s⁻¹
AUAAAAGCGCCAGAACUACAGAAAUGUAGUUGACGAGCAGGAGGUUUAGCGAAUUUUCGGCGGAUGCCUCCAAA [G38C U49G] | < 1e-05 s⁻¹ | < 1e-05 s⁻¹ | < 1e-05 s⁻¹ | 
AUAAAAGCGCCAGAACUACAGAAAUGUAGUUGACGAGAAGGAGGUUUAUCCAAUUUUCGGCGGAUGCCUCCAAA [G38A G51C] | < 1e-05 s⁻¹ |  |  | 
AUAAAAGCGCCAGAACUACAGAAAUGUAGUUGACGACGAGGAGAUUUAACGAAUUUUCGGCGGAUGCUUCCAAA [G37C G44A U49A C68U] | < 1e-05 s⁻¹ |  | < 1e-05 s⁻¹ | 
AUAAAAGCGCCAGAACUACAGAAAUGUAGUUGACGAGCAGGAGGUUUAUCGAAUUUUCGCCGGAUGCCUCGAAA [G38C G60C C71G] | < 1e-05 s⁻¹ | < 1e-05 s⁻¹ |  | 
AUAAAAGCGCCAGAACUACAGAAAUGUAGUUGACGAGUGGCUGGUUUAUCGAAUUUCCGGCGGAUGCCUCCAAA [G38U A39G G41C A42U U57C] | < 1e-05 s⁻¹ |  |  | 
AUAAAAGCGCCAGAACUACAGAAAUGUAGUUGACGAGUAGGUGGUUUAUCGAAUUGUCGGCGGAUGCCUCCAAA [G38U A42U U56G] | < 1e-05 s⁻¹ | < 1e-05 s⁻¹ |  | < 1e-05 s⁻¹
AUAAAAGCGCCAGAACUACAGAAAUGUAGUUGACGAGUAGGAGGUUUAUCGAAUUUUUGGCGGAUGCAUCCAAA [G38U C58U C68A] | 7.38e-05 ± 3.4e-05 s⁻¹ | 0.00022 ± 8.3e-05 s⁻¹ | 6.21e-05 ± 3.1e-05 s⁻¹ | 
AUAAAAGCGCCAGAACUACAGAAAUGUAGUUGACGAGAAGGUGGUUUAUCGUAUUUUCGGCGGAUGCAUCCAAA [G38A A42U A52U C68A] | < 1e-05 s⁻¹ | < 1e-05 s⁻¹ | < 1e-05 s⁻¹ | 
AUAAAAGCGCCAGAACUACAGAAAUGUAGUUGACGACGAGGAGGUUAAUCGAAUUUUCGGCGGAUGCCUCCAAA [G37C U47A] | < 1e-05 s⁻¹ |  |  | 4.38e-05 ± 1.1e-05 s⁻¹
AUAAAAGCGCCAGAACUACAGAAAUGUAGUUGACGUGGAGGAGGUUUAUCGAAUUCUCGGCGGAUGCCUCCAAA [A36U U56C] | < 1e-05 s⁻¹ | < 1e-05 s⁻¹ |  | < 1e-05 s⁻¹
AUAAAAGCGCCAGAACUACAGAAAUGUAGUUGACGUGGAGGAGGUUUAUCGAAGUUUCGGCGGAUGCCUCCAAA [A36U U54G] | < 1e-05 s⁻¹ |  |  | 
AUAAAAGCGCCAGAACUACAGAAAUGUAGUUGACGAGAAGGAGGUUUAUCGAUUUUUCGGCGGUUGCCUCCAAA [G38A A53U A64U] | < 1e-05 s⁻¹ |  |  | 
AUAAAAGCGCCAGAACUACAGAAAUGUAGUUGACGAGAAGCAGGUUUAUCGAAUUUUCGGCGGAUGCCUCCAAA [G38A G41C] | < 1e-05 s⁻¹ | < 1e-05 s⁻¹ | < 1e-05 s⁻¹ | < 1e-05 s⁻¹
AUAAAAGCGCCAGAACUACAGAAAUGUAGUUGACGAUGAGGAGGUUUAUUGAAUUUUAGCCGGCUGCCUCCAAA [G37U C50U C58A G60C A64C] | < 1e-05 s⁻¹ | < 1e-05 s⁻¹ | < 1e-05 s⁻¹ | 
AUAAAAGCGCCAGAACUACAGAAAUGUAGUUGACGAGCAGGAGAUUUAUCGAAUUUUCGGCGGAUGCCUCCAAA [G38C G44A] | < 1e-05 s⁻¹ | < 1e-05 s⁻¹ |  | < 1e-05 s⁻¹
AUAAAAGCGCCAGAACUACAGAAAUGUAGUUGACGAGCAGAAGGUUUAUCUAAUUUUCGGCGGAUGCCUCCAAA [G38C G41A G51U] | < 1e-05 s⁻¹ |  | < 1e-05 s⁻¹ | 
